Experimental findings from patent publication US9937235B2, “Lipidated peptides as anti-obesity agents” (USTAV ORGANICKE CHEMIE A BIOCHEMIE AKADEMIE VED CR, V.V.I, priority 2012, dated 2018) are described below.

Assay [1] deals with T1, rat PrRP receptor in RC-4B/C cells (rat, UniProt Q64121 1-370).
T1 construct: whole, on cells; also called the rat receptor; GPR10
T1 sequence (looked up): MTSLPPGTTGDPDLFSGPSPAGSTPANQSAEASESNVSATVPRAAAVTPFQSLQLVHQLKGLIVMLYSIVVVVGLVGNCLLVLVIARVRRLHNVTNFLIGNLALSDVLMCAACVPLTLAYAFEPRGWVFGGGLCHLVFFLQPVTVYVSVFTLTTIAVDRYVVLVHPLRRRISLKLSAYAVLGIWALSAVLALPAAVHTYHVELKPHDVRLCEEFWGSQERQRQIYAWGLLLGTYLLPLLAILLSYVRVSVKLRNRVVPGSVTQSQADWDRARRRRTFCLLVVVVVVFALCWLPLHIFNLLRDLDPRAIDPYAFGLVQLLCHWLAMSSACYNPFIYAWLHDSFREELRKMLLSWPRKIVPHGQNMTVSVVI
The assay is described as follows: competition with 125I-rat PrRP31 on RC-4B/C cells; Ki by Cheng-Prusoff. The method, then:
(§1) The rat pituitary cell line RC-4B/C (ATCC, Manassas, USA) was grown on 24-well plates which had their bottom coated with polyethyleneimine. The cells were grown to the optimal density of 300-450 thousand per well.
(§2) Plates were incubated for 60 minutes at room temperature. After incubation, the cells were solubilized in 0.1 mol/l solution of NaOH and the radioactivity bound to the cells was counted using a γ-counter. The experiments were performed in duplicate and repeated at least three times.
For evaluation of competitive binding experiments, the program Graph Pad Prism Software (San Diego, Calif., USA) was used. A method of nonlinear regression assuming one-site binding was used.

Assay [2] concerns the target T1, rat PrRP receptor in RC-4B/C cells. The assay is described as follows: competition with 125I-rat PrRP31 on RC-4B/C cells. The method, then:
as §1, §2

Where no end group is shown, it is not given here. [ ]: non-standard residue; d: D form. The star is where a group is joined. 1Nal = N[C@@H](Cc1cccc2ccccc12)C(=O)O; Myristoyl = CCCCCCCCCCCCCC(=O)*; Lauroyl = CCCCCCCCCCCC(=O)*; Nle = CCCC[C@H](N)C(=O)O; Octanoyl = CCCCCCCC(=O)*; Dap = NC[C@H](N)C(=O)O

B1: analog no. 7 (peptide)
peptide: [Dap]RAHQHS[Nle]ETRTPDINPAWYTGRGIRPVGR[1Nal]-NH2
modifications: N-terminus assumed
SMILES: CCCC[C@H](NC(=O)[C@H](CO)NC(=O)[C@H](Cc1c[nH]cn1)NC(=O)[C@H](CCC(N)=O)NC(=O)[C@H](Cc1c[nH]cn1)NC(=O)[C@H](C)NC(=O)[C@H](CCCNC(=N)N)NC(=O)[C@@H](N)CN)C(=O)N[C@@H](CCC(=O)O)C(=O)N[C@H](C(=O)N[C@@H](CCCNC(=N)N)C(=O)N[C@H](C(=O)N1CCC[C@H]1C(=O)N[C@@H](CC(=O)O)C(=O)N[C@H](C(=O)N[C@@H](CC(N)=O)C(=O)N1CCC[C@H]1C(=O)N[C@@H](C)C(=O)N[C@@H](Cc1c[nH]c2ccccc12)C(=O)N[C@@H](Cc1ccc(O)cc1)C(=O)N[C@H](C(=O)NCC(=O)N[C@@H](CCCNC(=N)N)C(=O)NCC(=O)N[C@H](C(=O)N[C@@H](CCCNC(=N)N)C(=O)N1CCC[C@H]1C(=O)N[C@H](C(=O)NCC(=O)N[C@@H](CCCNC(=N)N)C(=O)N[C@@H](Cc1cccc2ccccc12)C(N)=O)C(C)C)[C@@H](C)CC)[C@@H](C)O)[C@@H](C)CC)[C@@H](C)O)[C@@H](C)O
notes: analog of rat PrRP31
For the molecule B1, affinity in assay [1] was put at a Ki of 60.1 nM. The “% of PrRP31 binding” value in assay [2] was determined as 8%.

B2: analog no. 8 (peptide)
peptide: [Dap](Octanoyl)RAHQHS[Nle]ETRTPDINPAWYTGRGIRPVGR[1Nal]-NH2
modifications: N-terminus assumed
SMILES: CCCCCCCC(=O)NC[C@H](N)C(=O)N[C@@H](CCCNC(=N)N)C(=O)N[C@@H](C)C(=O)N[C@@H](Cc1c[nH]cn1)C(=O)N[C@@H](CCC(N)=O)C(=O)N[C@@H](Cc1c[nH]cn1)C(=O)N[C@@H](CO)C(=O)N[C@@H](CCCC)C(=O)N[C@@H](CCC(=O)O)C(=O)N[C@H](C(=O)N[C@@H](CCCNC(=N)N)C(=O)N[C@H](C(=O)N1CCC[C@H]1C(=O)N[C@@H](CC(=O)O)C(=O)N[C@H](C(=O)N[C@@H](CC(N)=O)C(=O)N1CCC[C@H]1C(=O)N[C@@H](C)C(=O)N[C@@H](Cc1c[nH]c2ccccc12)C(=O)N[C@@H](Cc1ccc(O)cc1)C(=O)N[C@H](C(=O)NCC(=O)N[C@@H](CCCNC(=N)N)C(=O)NCC(=O)N[C@H](C(=O)N[C@@H](CCCNC(=N)N)C(=O)N1CCC[C@H]1C(=O)N[C@H](C(=O)NCC(=O)N[C@@H](CCCNC(=N)N)C(=O)N[C@@H](Cc1cccc2ccccc12)C(N)=O)C(C)C)[C@@H](C)CC)[C@@H](C)O)[C@@H](C)CC)[C@@H](C)O)[C@@H](C)O
notes: analog of rat PrRP31
In assay [1], B2 registered a Ki of 39.2 nM. In addition, the “% of PrRP31 binding” value in assay [2] stood at 13%.

B3: analog no. 9 (peptide)
peptide: [Dap](Myristoyl)RAHQHS[Nle]ETRTPDINPAWYTGRGIRPVGR[1Nal]-NH2
modifications: N-terminus assumed
SMILES: CCCCCCCCCCCCCC(=O)NC[C@H](N)C(=O)N[C@@H](CCCNC(=N)N)C(=O)N[C@@H](C)C(=O)N[C@@H](Cc1c[nH]cn1)C(=O)N[C@@H](CCC(N)=O)C(=O)N[C@@H](Cc1c[nH]cn1)C(=O)N[C@@H](CO)C(=O)N[C@@H](CCCC)C(=O)N[C@@H](CCC(=O)O)C(=O)N[C@H](C(=O)N[C@@H](CCCNC(=N)N)C(=O)N[C@H](C(=O)N1CCC[C@H]1C(=O)N[C@@H](CC(=O)O)C(=O)N[C@H](C(=O)N[C@@H](CC(N)=O)C(=O)N1CCC[C@H]1C(=O)N[C@@H](C)C(=O)N[C@@H](Cc1c[nH]c2ccccc12)C(=O)N[C@@H](Cc1ccc(O)cc1)C(=O)N[C@H](C(=O)NCC(=O)N[C@@H](CCCNC(=N)N)C(=O)NCC(=O)N[C@H](C(=O)N[C@@H](CCCNC(=N)N)C(=O)N1CCC[C@H]1C(=O)N[C@H](C(=O)NCC(=O)N[C@@H](CCCNC(=N)N)C(=O)N[C@@H](Cc1cccc2ccccc12)C(N)=O)C(C)C)[C@@H](C)CC)[C@@H](C)O)[C@@H](C)CC)[C@@H](C)O)[C@@H](C)O
notes: analog of rat PrRP31; also called myristoylated analog [Dpr^1 Nal^31]PrRP31 (No. 9)
Take B3: the inhibitory constant (Ki) in assay [1] was found to be 2.95 nM. Moreover, the “% of PrRP31 binding” value in assay [2] is 167%.

B4: analog no. 2 (peptide)
peptide: [Dap](Octanoyl)RAHQHS[Nle]ETRTPDINPAWYTGRGIRPVGRF-NH2
modifications: N-terminus assumed
SMILES: CCCCCCCC(=O)NC[C@H](N)C(=O)N[C@@H](CCCNC(=N)N)C(=O)N[C@@H](C)C(=O)N[C@@H](Cc1c[nH]cn1)C(=O)N[C@@H](CCC(N)=O)C(=O)N[C@@H](Cc1c[nH]cn1)C(=O)N[C@@H](CO)C(=O)N[C@@H](CCCC)C(=O)N[C@@H](CCC(=O)O)C(=O)N[C@H](C(=O)N[C@@H](CCCNC(=N)N)C(=O)N[C@H](C(=O)N1CCC[C@H]1C(=O)N[C@@H](CC(=O)O)C(=O)N[C@H](C(=O)N[C@@H](CC(N)=O)C(=O)N1CCC[C@H]1C(=O)N[C@@H](C)C(=O)N[C@@H](Cc1c[nH]c2ccccc12)C(=O)N[C@@H](Cc1ccc(O)cc1)C(=O)N[C@H](C(=O)NCC(=O)N[C@@H](CCCNC(=N)N)C(=O)NCC(=O)N[C@H](C(=O)N[C@@H](CCCNC(=N)N)C(=O)N1CCC[C@H]1C(=O)N[C@H](C(=O)NCC(=O)N[C@@H](CCCNC(=N)N)C(=O)N[C@@H](Cc1ccccc1)C(N)=O)C(C)C)[C@@H](C)CC)[C@@H](C)O)[C@@H](C)CC)[C@@H](C)O)[C@@H](C)O
notes: analog of rat PrRP31; also called [Dpr(oct)^1]PrRP31
With B4, the inhibition constant Ki in assay [1] is 2.86 nM. Moreover, the “% of PrRP31 binding” value in assay [2] was 172%.

B5: analog no. 3 (peptide)
peptide: [Dap](Lauroyl)RAHQHS[Nle]ETRTPDINPAWYTGRGIRPVGRF-NH2
modifications: N-terminus assumed
SMILES: CCCCCCCCCCCC(=O)NC[C@H](N)C(=O)N[C@@H](CCCNC(=N)N)C(=O)N[C@@H](C)C(=O)N[C@@H](Cc1c[nH]cn1)C(=O)N[C@@H](CCC(N)=O)C(=O)N[C@@H](Cc1c[nH]cn1)C(=O)N[C@@H](CO)C(=O)N[C@@H](CCCC)C(=O)N[C@@H](CCC(=O)O)C(=O)N[C@H](C(=O)N[C@@H](CCCNC(=N)N)C(=O)N[C@H](C(=O)N1CCC[C@H]1C(=O)N[C@@H](CC(=O)O)C(=O)N[C@H](C(=O)N[C@@H](CC(N)=O)C(=O)N1CCC[C@H]1C(=O)N[C@@H](C)C(=O)N[C@@H](Cc1c[nH]c2ccccc12)C(=O)N[C@@H](Cc1ccc(O)cc1)C(=O)N[C@H](C(=O)NCC(=O)N[C@@H](CCCNC(=N)N)C(=O)NCC(=O)N[C@H](C(=O)N[C@@H](CCCNC(=N)N)C(=O)N1CCC[C@H]1C(=O)N[C@H](C(=O)NCC(=O)N[C@@H](CCCNC(=N)N)C(=O)N[C@@H](Cc1ccccc1)C(N)=O)C(C)C)[C@@H](C)CC)[C@@H](C)O)[C@@H](C)CC)[C@@H](C)O)[C@@H](C)O
notes: analog of rat PrRP31
Molecule B5 came in with a Ki in assay [1] of 1.12 nM. Moreover, in assay [2], the “% of PrRP31 binding” value stood at 440%.

The Ki is the dissociation constant of the complex between target and ligand, obtained from inhibition or displacement. Low readings indicate tighter binding, high ones weaker binding.
